Assay results published in paper PMC7261172, “Peptides containing the PCNA interacting motif APIM bind to the β-clamp and inhibit bacterial growth and mutagenesis” (Nucleic Acids Research, 2020).

B1: Octamer APIM peptide RWLVK (Ac-MDRWLVKW) (peptide)
peptide: Ac-MDRWLVKW-NH2
modifications: also: TFA salt
notes: APIM motif RWLVK without the cell penetrating part; also called octamer peptide containing RWLVK; source: synthetic peptide; bought: Innovagen, Sweden
B2: Pol III β-clamp binding peptide (Ac-EQVELEFD) (peptide)
peptide: Ac-EQVELEFD-NH2
modifications: also: TFA salt
notes: also called Pol III peptide; source: synthetic peptide; bought: Innovagen, Sweden
B3: Cell penetrating APIM-peptide RFSLK (Ac-MD-RFSLK-WKKKRKI-RRRRRRRRRRR) (peptide)
peptide: Ac-MDRFSLKWKKKRKIRRRRRRRRRRR-NH2
modifications: also: TFA salt
notes: APIM motif RFSLK, linker WKKKRKI, cell penetrating R11; TFA salt, >90% pure; also called RFSLK-peptide; source: synthetic peptide; bought: Innovagen, Sweden
B4: Cell penetrating APIM-peptide RWLVK (Ac-MD-RWLVK-WKKKRKI-RRRRRRRRRRR) (peptide)
peptide: Ac-MDRWLVKWKKKRKIRRRRRRRRRRR-NH2
modifications: also: TFA salt
notes: APIM motif RWLVK, linker WKKKRKI, cell penetrating R11; TFA salt, >90% pure; also called RWLVK-peptide; cell penetrating RWLVK-peptide; source: synthetic peptide; bought: Innovagen, Sweden
B5: Cell penetrating peptide with mutated APIM RALVK (Ac-MD-RALVK-WKKKRKI-RRRRRRRRRRR) (peptide)
peptide: Ac-MDRALVKWKKKRKIRRRRRRRRRRR-NH2
modifications: also: TFA salt
notes: mutated APIM RALVK, linker WKKKRKI, cell penetrating R11; TFA salt, >90% pure; also called RALVK-peptide; source: synthetic peptide; bought: Innovagen, Sweden

Tests used:
Details in all cases: both partners purified
[1] = target: T1, E. coli β-clamp P242D, His-tagged (E. coli, UniProt P0A988 1-366, P242D); experiment: SPR; WT or mutant β-clamp immobilised by amine coupling on CM5 (about 2000 RU); octamer peptides at 4-128 μM, single-cycle; 25°C, 30 μl/min; PBS P+ (20 mM phosphate pH 7.4, 3 mM KCl, 137 mM NaCl, 0.05% P20); sensorgrams normalised to the immobilised level
T1 construct: β-clamp, product of the dnaN gene, E. coli, with P242D; Made by site-directed mutagenesis of the plasmid of m1

[2] = target: T2, E. coli β-clamp H148K, His-tagged (E. coli, UniProt P0A988 1-366, H148K); experiment: as above
T2 construct: β-clamp, product of the dnaN gene, E. coli, with H148K; Made by site-directed mutagenesis of the plasmid of m1

[3] = target: T3, E. coli β-clamp V151A, His-tagged (E. coli, UniProt P0A988 1-366, V151A); experiment: as above
T3 construct: β-clamp, product of the dnaN gene, E. coli, with V151A; Made by site-directed mutagenesis of the plasmid of m1

[4] = target: T4, E. coli β-clamp M362D, His-tagged (E. coli, UniProt P0A988 1-366, M362D); experiment: as above
T4 construct: β-clamp, product of the dnaN gene, E. coli, with M362D; Made by site-directed mutagenesis of the plasmid of m1

[5] = target: T5, E. coli β-clamp P363D, His-tagged (E. coli, UniProt P0A988 1-366, P363D); experiment: as above
T5 construct: β-clamp, product of the dnaN gene, E. coli, with P363D; Made by site-directed mutagenesis of the plasmid of m1

[6] = target: T6, E. coli β-clamp, wild type, His-tagged (E. coli, UniProt P0A988 1-366); experiment: NMR titration; 1D 1H NMR of the peptide with sub-stoichiometric β-clamp (100 or 50 μM peptide added 5 or 20 μM β-clamp); line broadening or loss of signal read; 298 K, 20 mM NaH2PO4, 100 mM NaCl, pH 7.4
T6 construct: β-clamp (β subunit of DNA polymerase III), product of the dnaN gene, E. coli; no cleavage is described; also called WT β-clamp; DNA sliding clamp; source: for NMR HisTrap FF and Superdex 200 SEC

[7] = target: T7, E. coli β-clamp labelled with RED-maleimide dye (MST) (E. coli, UniProt P0A988 1-366, RED-maleimide fluorescent dye (RED-Maleimide Labelling Kit, NanoTemper); site not stated); experiment: MST; β-clamp labelled with RED-maleimide (3 nM stock, diluted 1:1 with ligand); peptides in 16 1:1 dilutions from 500 μM to 15 nM; 50 mM Tris-HCl pH 7.5, 150 mM NaCl, 10 mM MgCl2, 2% fetal bovine serum; Monolith NT.115; change of fluorescence analysed
T7 construct: β-clamp (β subunit of DNA polymerase III), product of the dnaN gene, E. coli; it may or may not be the same His-tagged pET-16b construct as m1; also called fluorescent labeled β-clamp; Purified E.coli β-clamp; source: labelled with the RED-Maleimide Labelling Kit

Row | Binder | binding result [6] | Kd [7] [µM] | further results
1 | B1 | binds | – | binding result [1]: binds; binding result [2]: binds; binding result [3]: binds; binding result [4]: binds; binding result [5]: binds
2 | B2 | binds | – | –
3 | B3 | – | < 50 | –
4 | B4 | – | < 50 | –
5 | B5 | – | > 750 | –
